The DeepSol protein solubility set

Assay: soluble on expression in E. coli; label from the status in PepcDB or PDB records

Row | Sequence | soluble on expression in E. coli
1 | MSSTAVQPPPPVPPPPPSAVPSAGKGIHSKLYNGMIGAADKFVPAKLRPLWMHPAGPKTIFFWAPVFKWGLVAAGLSDLARPADTISVSGCAALAATGIIWSRYSLVIIPKNYSLFAVNLFVGITQVVQLARAYHYHQSQEKLKQEQQQPAVQNLEHHHHHH | not soluble
2 | MSSTECYGAPPHNYYQDWPTTHSYYPSVPSSYSPLNHHPADIWAAHPSNYIMGNGHVSPPATASGLSPPASRSSNSSAELPTGVTASQHNTYKWMHTKRSQRPAAPKKKVIDENGTNRTNFTTHQLTELEKEFHTAKYVNRTRRTEIASNLKLQEAQVKIWFQNRRMKEKKREKEKAFLARNTWESNSPTSSCSGEDVKNFK | not soluble
3 | MSSTMKDTQEAPVRWSRNWTPDAIRALVDQDNGKLDARIYADQDLYQLELERVFGRSWLMLGHETHIPKIGDYLTTYMGEDPVIMVRQKDQSIKVFLNQCRHRGMRIVRSDGGNAKAFTCTYHGWAYDIAGNLVNVPFEKEAFCDKKEGDCGFDKADWGPLQARVETYKGLVFANWDPEAPDLKTYLSDAMPYMDVMLDRTEAGTEAIGGIQKWVIPCNWKFAAEQFCSDMYHAGTMSHLSGVLAGLPPEMDLTQIQLSKNGNQFRSAWGGHGAGWFINDSSILLSVVGPKITQYWTQGPAAEKAARRVPQLPILDMFGQHMTVFPTCSFLPGINTIRTWHPRGPNEVEVWAFVLVDADAPEDIKEEFRLQNIRTFNAGGVFEQDDGENWVEIQRVMRGHKAKSTSLCAKMGLNVPNKNNPAYPGKTAYVYAEEAARGMYHHWSRMMSEPSWDTLKP | soluble
4 | MSSVAVLTQESFAEHRSGLVPQQIKVATLNSEEESDPPTYKDAFPPLPEKAACLESAQEPAGAWSNKIRPIKASVITQVFHVPLEERKYKDMNQFGEGEQAKICLEIMQRTGAHLELSLAKDQGLSIMVSGKLDAVMKARKDIVARLQTQASATVPIPKEHHRFVIGKNGEKLQDLELKTATKIQIPRPDDPSNQIKITGTKEGIEKARHEVLLISAEQDKRAVERLEVEKAFHPFIAGPYNRLVGEIMQETGTRINIPPPSVNRTEIVFTGEKEQLAQAVARIKKIYEEKKKKTTTIAVEVKKSQHKYVIGPKGNSLQEILERTGVSVEIPPSDSISETVILRGEPEKLGQALTEVYAKVASSKIKLCSDNS | not soluble
5 | MSSYANHQALAGLTLGKSTDYRDTYDASLLQGVPRSLNRDPLGLKADNLPFHGTDIWTLYELSWLNAKGLPQVAVGHVELDYTSVNLIESKSFKLYLNSFNQTRFNNWDEVRQTLERDLSTCAQGKISVALYRLDELEGQPIGHFNGTCIDDQDITIDNYEFTTDYLENATCGEKVVEETLVSHLLKSNCLITHQPDWGSLQIQYRGRQIDREKLLRYLVSFRHHNEFHEQCVERIFNDLLRFCQPEKLSVYARYTRRGGLDINPWRSNSDFVPSTTRLVRQ | soluble
6 | MSTDITPSSAPQCPDHIVFEHVTKEFRTRSGTVRALDDVSLAIKRGSISAVIGHSGAGKSTLVRLINGLETPTRGRVLVDGTDVSQLSDKAMRPLRADIGMIFQQFNLFGSRTIYDNVAYPLKLAHWKKADEKKRITELLSFVGLTSKAWDHPDQLSGGQKQRVGIARALATKPSILLADESTSALDPETTADVLSLLKRVNAELGVTVVVITHEMEVVRSIAQQVSVLAAGHLVESGSARQVFAHPQSETTQRFLATIIGQHPNGEEQARLQSENPHARLVDVSSVASHSFGDALARISHTGASFQIVHGGVIEVHDGSLGNYTVALSGPAQAVEQAVQILEEVSNSAAPTTSATVPTPTEEAHLEHHHHHH | not soluble
7 | MSTENDVSEENNSELDDVEDAKQDDRRRSTTVIMTMNVTTVPATESEGVRRNGSVRRRLSKQNATIEEPISLLSISDSPSENSDTTVPCIEEHPEEGKEEEKPAESSDVSKLRPPGLAQNKLWSTSKSLSRESTGTEYSDRSGIDLRNFVDRTLHKSEEDRKQLLEFEKQLKELILDDSTQSKRFELPSSYHRMLLHRCAAWFGLDHNVTNKQTDIVVNKSEKTKIPDDNFTDYIRHDNYVEDRLKRQNTCGSRKELHHMESFGDHSTSQYGSQASLNHDLLMMRRAQSFDVAAVTGPSVIQPQSPHHVRGLPMRQLSLNCPQQSMVTAPMSGPQGHQWAPQRSFDCSNNSYLCTGKHPMMRKAESFGGMANGISHGCYEQSVPVVCGTPPSVMVHHHHHHAHIQQPPTSNYTGYQVFEEMSMPSSNYQEPGMCSPGGTYYEYVPQPVVQPQQYARPIRYMPQDYRRPQGVQYMYGPPPPQQYMQYQPMVHPEVEVIVDPVQTQPFPQVSHFVLPDQQQGYSSSHQAETANSFIKASIDGGYGSMNQDVENAEKVEEV | not soluble
8 | MSTEPQFENPFIDRQLDGSKIHEISGHRFKATALVQPTCCAICSKLIYGLGKQGYRCLGCETVVHKRCHSLINDRCNFGPSSPRQPPPQELSSDSGELRHRIPSPTEPQVSTNHHFNKHFYTRPTFCDHCGSLLYGLSKQGVQCSDCLANVHHRCKEKAVHNCIVSSQ | not soluble
9 | MSTHEKLLTADNPVLHQRAKAMRQEMSEAEAKLWQHLRAGRLNGYKFRRQQPMGNYIVDFMCVTPKLIVEADGGQHAEQAVYDHARTAYLNSLGFTVLRFWNHEILQQTNDVLAEILRVLQELEKQYAQ | not soluble
10 | MSTIIMDLCSYTRLGLTGYLLSRGVKKREINDIETVDDLAIACDSQRPSVVFINEDCFIHDASNSQRIKLIINQHPNTLFIVFMAIANVHFDEYLLVRKNLLISSKSIKPESLDDILGDILKKETTITSFLNMPTLSLSRTESSMLRMWMAGQGTIQISDQMNIKAKTVSSHKGNIKRKIKTHNKQVIYHVVRLTDNVTNGIFVNMR | not soluble
11 | MSTNALQPKTIGGNNNILEVIRLKRADLRKSDRKVAELVLADPKRVINATIAEAAEWAEVSQPTVIRFCASIGCQGYQDFKLRLAQSLALGMSATHSVIDADDTPAKVSEKIFDYTITSLDWVRNHLDPVQVDRAVDALAKANRIEFFGFGASGIVARDAQQKFPLFGVPCGAETDAHQQIMVVSMLKPGDVAVVISNTGATLAIIETARRARESGCQVIGIVGSDGPLVEFCDIVLMVETLENTNIYTPTISRIAALTVVDILSTSVALRRGAEHVDLFTGMKRNLRYLRTSTET | not soluble
12 | MSTQFKLPLASPLTHGREDFAVSPSNGEAVARLDAWPDWAEGRLVLVGPAGCGKSHLARAWAAAAGAVVVEAANPDAASVDLSALRGRAVLVEDADRRAQGAAVSDEALFHILNMAGVDGGTVLLTGRTAPLTWSAEVADLRSRLNALSVAEIAEPDDAVLEAVLRRAFAAAWWKPEPDLYPYLLARLPRSAAEAQAAAALLAEAAADGRRELTKALAREVLEGFEGDEGLEHHHHHH | not soluble
13 | MSTSQTKNVSIDTIKEFMYQVLLKVGSDEENARMVRDTLIAADLRGMDTHGIQRFKTVYIDRIKKGMINPTAKPSIIRETSTTCVLDGNNGFGHVNGTIGMKMAIEKAKKYGMGMVVVRNSTHFGIAGYYSLLAAQEGCIGICGTNARSSVAATFGDEPILGTNPLAIGIPSDEAFPYCFDGATSISPTGRFEKYVRMGKTVDKSWASMKGGKPIEDPKELLENYPKGKAYLHPLGGSDEVSGSHKGYCLSEFVEIMSSCLSIANFLNHIEEEKEKSGKFSLGHFFIAINVECFRDLNEFKKNVGDINRTLRNTDKLPGHDRIYTAGEKEYETEQKRRKFGDDLPLVTINEMKELSSFYNVPLPF | soluble
14 | MSVEGLGKDFCGAIIPDNFFPIEKLRNYTQMGLIRDFAKGSAVIMPGEEITSMIFLVEGKIKLDIIFEDGSEKLLYYAGGNSLIGKLYPTGNNIYATAMEPTRTCWFSEKSLRTVFRTDEDMIFEIFKNYLTKVAYYARQVAEMNTYNPTIRILRLFYELCSSQGKRVGDTYEITMPLSQKSIGEITGVHHVTVSRVLACLKRENILDKKKNKIIVYNLGELKHLSEQTSYYSDPNSSSVDKLAAALDHH | soluble
15 | MSVHESSNEINDEPMDTDSNIPESSGNDPSMEVDDEPESSDAADSFKRFERLLQKTENFSHCLSSGDAKLATGAPVDTKKRGRPSKKNGIDGDHRHRKTEQEEDEEMVADAIKSDDLVIFDKSPFYIENGEMRDYQVRGLNWLASLQHNKINGILADEMGLGKTLQTISMIGYMKHYKNKASPHLVIVPKSTLQNWANEFKKWCPSINAVVLIGDEAARNQVLRDVILPQKFDVCCTTYEMMLKVKTQLKKLNWRYIIIDEAHRIKNEKSKLSETVRELNSENRLLITGTPLQNNLHELWALLNFLLPDIFTSSDDFDSWFSNDAMSGNTDLVQRLHKVLQPFLLRRIKSDVEKSLLPKKEVKVYVGLSKMQREWYTKVLMKDIDIINGAGKVEKARLMNILMHLRKCVNHPYLFDGAEPGPPFTTDQHLVDNSGKMVVLDKLLMKFKEQGSRVLIFSQFSRMLDLLEDFCWWRHYEYCRLDGSTPHEDRSNAIEAYNAPDSKKFIFMLTTRAGGLGINLATADVVIIYDSDWNPQSDLQAMDRAHRIGQKKQVRVFRLITENTVDERIIEKAEAKLRLDNIVIQQGRMSEAQKTLGKGDMISMIRHGAEQVFAAKDSTISDDDIDTILEKAEVKTAELNEKMGKIDENNLRNMTFEDNAKFTVYQFEGENYKAKQADGMGHFWIEPPKRERKANYQVDLYYKEAMRAGNPTEKQSKAPRPKLPQVFDFQFYPRRLFELLDKEIYHYRKTIGYVAERPKDVPPKEAEKRQAEEQKLINNARPLTDKEQEEKAELLTQSVTDWTKREFQQFVRGNEKYGREDLESIAKEMERPLEEIQSYAKVFWERIEELQDSEKVLSQIEKGEARIQRKYAVKKALDAKIAKYKAPFQQLRISYGTNKGKTYTEEEDRFLVCETHRLGHDKENVFEELRQSVRMAPQFRFDWFLKSRTAMELQRRCNTLITLIEREMGEVVESKPVIVTAADKKKSVAKDLSKSSGTPTAKKVKATPK | not soluble
16 | MSVIIVGGGMAGATLALAISRLSHGALPVHLIEATAPESHAHPGFDGRAIALAAGTCQQLARIGVWQSLADCATAITTVHVSDRGHAGFVTLAAEDYQLAALGQVVELHNVGQRLFALLRKAPGVMLHCPDRVANVARTQSHVEVTLESGEMLTGRVLIAADGTHSALATACGVDWQQEPYEQLAVIANVATSVAHEGRAFERFTQHGPLAMLPMSDGRCSLVWCHPLERREEVLSWSDEKFCRELQSAFGWRLGQITHAGKRSAYPLALTRAARPITHRTVLVGNAAQTLHPIAGQGFNLGMRDVMSLAETLTQAHERGEDIGDYGILCRYQQRRQSDREATIGVTDSLVHLFANRWAPLVVGRNIGLMTMELFTPARDVLAQRTLGWVARLEHHHHHH | soluble
17 | MSVLDALWEDRDVRFDLSAQQMKTRPGEVLIDCLDSIEDTKGNNGDRGRLLVTNLRILWHSLALSRVNVSVGYNCILNITTRTANSKLRGQTEALYILTKCNSTRFEFIFTNLVPGSPRLFTSVMAVHRAYETSKMYRDFKLRSALIQNKQLRLLPQEHVYDKINGVWNLSSDQGNLGTFFITNVRIVWHANMNDSFNVSIPYLQIRSIKIRDSKFGLALVIESSQQSGGYVLGFKIDPVEKLQESVKEINSLHKVYSASPIFGVDYEMEEKPQPLEALTVEQIQDDVEIDSDGHTDAFVAYFADGNKQQDREPVFSEELGLAIEKLKDGFTLQGLWEVMS | soluble
